Assay results from the Human Domainome abundance scans (Beltran et al. 2025).
± gives the uncertainty stated by the source.

B1: Unconventional myosin-Ie, residues 1051 to 1108; numbered along this chain, Q12965 (parent)
chain: PQVPQCKALYAYDAQDTDELSFNANDIIDIIKEDPSGWWTGRLRGKQGLFPNNYVTKI

Variants of: B1
Test: abundance fitness (aPCA) (normalised: wild type 0, dead -1); higher = more abundant; growth selection in yeast, the domain comes from the species named
Conditions: Homo sapiens

Variant	abundance fitness
PQVPQCKALYAYVAQDTDELSFNANDIIDIIKEDPSGWWTGRLRGKQGLFPNNYVTKI [D13V]	-0.161 ± 0.056
PQVPQCKALYAYDAQDTDELSFNANDIIDIIKDDPSGWWTGRLRGKQGLFPNNYVTKI [E33D]	-0.271 ± 0.05
PQVPQCKALYAYFAQDTDELSFNANDIIDIIKEDPSGWWTGRLRGKQGLFPNNYVTKI [D13F]	-0.293 ± 0.057
PQVPQCKALYAYDAQDTDELSFNANDIIDIIKEDPSGWWYGRLRGKQGLFPNNYVTKI [T40Y]	-0.07 ± 0.041
PQVPQCKALYAYDAQDTDELSFNANMIIDIIKEDPSGWWTGRLRGKQGLFPNNYVTKI [D26M]	-0.86 ± 0.12
PQVPQCKALWAYDAQDTDELSFNANDIIDIIKEDPSGWWTGRLRGKQGLFPNNYVTKI [Y10W]	-0.092 ± 0.065
PQVPQCKALYAYDAQDTDELSFNANDIIDIIKEDPSGWWTGKLRGKQGLFPNNYVTKI [R42K]	0.104 ± 0.076
PQVPQCKALYAYDAQDTDELSFNANDIIDIIKEDPSGWWTGLLRGKQGLFPNNYVTKI [R42L]	-0.161 ± 0.065
PQVPQCKALYAYDAQDTDELSFNANDIIDIIKEDPSGWWTGRLRGKQGLFPNDYVTKI [N53D]	0.016 ± 0.052
PQVPQCKALYAYDAQDTDELSFNANDIIDIIKEDPSGWETGRLRGKQGLFPNNYVTKI [W39E]	-1 ± 0.22
PQVPQCKALYAYDAQDTDELSFNAVDIIDIIKEDPSGWWTGRLRGKQGLFPNNYVTKI [N25V]	-0.753 ± 0.073
PQVPQCKALYAYDAQDTDESSFNANDIIDIIKEDPSGWWTGRLRGKQGLFPNNYVTKI [L20S]	-0.879 ± 0.14
PQVPQCKALRAYDAQDTDELSFNANDIIDIIKEDPSGWWTGRLRGKQGLFPNNYVTKI [Y10R]	0.056 ± 0.036
PQVPQGKALYAYDAQDTDELSFNANDIIDIIKEDPSGWWTGRLRGKQGLFPNNYVTKI [C6G]	0 ± 0.041
PQVPQCKALYAYAAQDTDELSFNANDIIDIIKEDPSGWWTGRLRGKQGLFPNNYVTKI [D13A]	-0.156 ± 0.051
PQVPQCKALYAYDAQDTDELSFNANDIIDIIKEDPSLWWTGRLRGKQGLFPNNYVTKI [G37L]	-0.617 ± 0.095
PQVPQCKALYPYDAQDTDELSFNANDIIDIIKEDPSGWWTGRLRGKQGLFPNNYVTKI [A11P]	0.019 ± 0.062
PQVPQCKALYAYDAQDTDELSFNANDIIDIIKEDPSGWWTGRLIGKQGLFPNNYVTKI [R44I]	-0.759 ± 0.25
PQVPQCKALYAYDAQDTDELSFNANDIIDIIKEDKSGWWTGRLRGKQGLFPNNYVTKI [P35K]	-0.027 ± 0.049
PQVPQTKALYAYDAQDTDELSFNANDIIDIIKEDPSGWWTGRLRGKQGLFPNNYVTKI [C6T]	-0.768 ± 0.14
PQVPQCKALYAYDAQDTDELSFNANDIIDIIKEDPSGWWTGRLRQKQGLFPNNYVTKI [G45Q]	-0.149 ± 0.083
PQVPQCKALYAYDCQDTDELSFNANDIIDIIKEDPSGWWTGRLRGKQGLFPNNYVTKI [A14C]	-0.284 ± 0.059
PQVPQCDALYAYDAQDTDELSFNANDIIDIIKEDPSGWWTGRLRGKQGLFPNNYVTKI [K7D]	-1.02 ± 0.1

Variant	abundance fitness
PQVPQCKALYAYDAQDTDELSFNANDIIDIIKEDPSGWWTGRLRHKQGLFPNNYVTKI [G45H]	-0.1 ± 0.07
PQVPQCKALYAYDAQDTDELSFNANDIIDIIKEDPSGWWTGRLRTKQGLFPNNYVTKI [G45T]	-0.353 ± 0.088
PQVPQCKALYAYDAQDTDELSFNANDIIDIIKEDPSGWWTGRLRGKQGLFPANYVTKI [N52A]	0.03 ± 0.049
PQVPQCKALYAYDAQDTDELSFNANDIIDIIKEDPSGWWTGRLRGKQGKFPNNYVTKI [L49K]	0.036 ± 0.066
PQVPQCKALYAYDAQDTDELSFNANDIIDIIKEDPSFWWTGRLRGKQGLFPNNYVTKI [G37F]	-0.797 ± 0.31
PQVPQCKALYAYDAQDTDELSFNANDIIDIIKETPSGWWTGRLRGKQGLFPNNYVTKI [D34T]	-0.123 ± 0.036
PQVPQCKALYAYDAQDTDELSFNANDIIDIIKEFPSGWWTGRLRGKQGLFPNNYVTKI [D34F]	-0.332 ± 0.12
PQVPQCKALYAYDAQDTDELSFNANDIIFIIKEDPSGWWTGRLRGKQGLFPNNYVTKI [D29F]	-0.408 ± 0.062
PQVPQCKALYAYDAQQTDELSFNANDIIDIIKEDPSGWWTGRLRGKQGLFPNNYVTKI [D16Q]	-0.22 ± 0.07
PQVPQCKALYAYDAQDTDELSFNANDIIDIWKEDPSGWWTGRLRGKQGLFPNNYVTKI [I31W]	-0.479 ± 0.042
PQVPQCKALYAYDAQDTDELSFNANDIIDIIKEDPSGWWTGRVRGKQGLFPNNYVTKI [L43V]	-0.063 ± 0.037
PQVPQCKALYAYDAQDTDELSFNANDIIDIIKEDPSGWWTGRLHGKQGLFPNNYVTKI [R44H]	-0.236 ± 0.12
PQVPQCKALYAYDAQDTDELSFNANDIIDIIKEDPSGWWTGRLRGKPGLFPNNYVTKI [Q47P]	-0.32 ± 0.1
PQVPQCKALYAYDAQDTDELSFNANDIIDIIKEDPSGLWTGRLRGKQGLFPNNYVTKI [W38L]	-0.211 ± 0.3
PQVPQCKALYAYDAQDTDELSFNANDIIDIIKEDDSGWWTGRLRGKQGLFPNNYVTKI [P35D]	-0.023 ± 0.051
PQVPQCKALYAYDAQDTDELSFNANDIIDIIKEDPYGWWTGRLRGKQGLFPNNYVTKI [S36Y]	-0.349 ± 0.093
PQVPQCKALYAYDAQDTDELSFNANDIIDIIKEDPSGWWTGRLRGKQDLFPNNYVTKI [G48D]	-0.885 ± 0.27
PQVPQCKALYAYDAQDTDELSFNANDIIDIIKEDPSGWWTGRLRGGQGLFPNNYVTKI [K46G]	-0.411 ± 0.074
PQVPQCKALYAYDAQDTDELSFNANDIIDIIKEDPSGWWTGRLRGKQGLFPNNYVEKI [T56E]	0.033 ± 0.038
PQVPQCKALYAYDAQDTDELSFNANDIIDNIKEDPSGWWTGRLRGKQGLFPNNYVTKI [I30N]	-0.85 ± 0.32
PQVPQCKALYAYDAQMTDELSFNANDIIDIIKEDPSGWWTGRLRGKQGLFPNNYVTKI [D16M]	-0.098 ± 0.054
PQVPQCKALYAYDAQDTDELSFNANDIIDIIKEDPSGWWTDRLRGKQGLFPNNYVTKI [G41D]	-0.899 ± 0.11
PQVPQCKALYAYDAQDADELSFNANDIIDIIKEDPSGWWTGRLRGKQGLFPNNYVTKI [T17A]	0.026 ± 0.048
